# Laboratory results taken from patent US20240269235A1 (Gilead, published 2024).
# Positions count from the first letter of the chain named.
# T1: trimeric murine IL-2 receptor (IL-2Rα, IL-2Rβ, and IL-2Rγ) on CTLL-2 cells (murine, UniProt P01590 22-268; P16297 27-539; P34902 23-369)
# T1 sequence (looked up) 1: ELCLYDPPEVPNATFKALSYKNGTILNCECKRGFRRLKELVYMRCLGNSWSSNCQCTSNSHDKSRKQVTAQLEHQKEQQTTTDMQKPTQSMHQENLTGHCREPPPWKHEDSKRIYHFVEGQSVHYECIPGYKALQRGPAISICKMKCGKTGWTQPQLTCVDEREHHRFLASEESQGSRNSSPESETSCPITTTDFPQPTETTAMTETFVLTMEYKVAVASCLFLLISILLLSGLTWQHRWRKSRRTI
# T1 sequence (looked up) 2: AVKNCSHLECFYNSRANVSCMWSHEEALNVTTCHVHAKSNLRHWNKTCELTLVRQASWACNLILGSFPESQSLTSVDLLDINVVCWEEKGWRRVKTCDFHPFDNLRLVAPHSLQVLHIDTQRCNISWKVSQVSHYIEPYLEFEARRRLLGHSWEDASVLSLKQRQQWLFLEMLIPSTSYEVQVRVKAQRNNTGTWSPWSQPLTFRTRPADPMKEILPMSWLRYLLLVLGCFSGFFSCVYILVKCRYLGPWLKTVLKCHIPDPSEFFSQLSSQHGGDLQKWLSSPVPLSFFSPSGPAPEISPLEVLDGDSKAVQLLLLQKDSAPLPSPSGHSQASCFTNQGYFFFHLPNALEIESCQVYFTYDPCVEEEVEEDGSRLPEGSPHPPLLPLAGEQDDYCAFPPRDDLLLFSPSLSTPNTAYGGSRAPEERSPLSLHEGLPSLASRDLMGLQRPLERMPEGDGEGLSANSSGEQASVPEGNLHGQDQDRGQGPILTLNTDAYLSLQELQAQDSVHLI
# T1 sequence (looked up) 3: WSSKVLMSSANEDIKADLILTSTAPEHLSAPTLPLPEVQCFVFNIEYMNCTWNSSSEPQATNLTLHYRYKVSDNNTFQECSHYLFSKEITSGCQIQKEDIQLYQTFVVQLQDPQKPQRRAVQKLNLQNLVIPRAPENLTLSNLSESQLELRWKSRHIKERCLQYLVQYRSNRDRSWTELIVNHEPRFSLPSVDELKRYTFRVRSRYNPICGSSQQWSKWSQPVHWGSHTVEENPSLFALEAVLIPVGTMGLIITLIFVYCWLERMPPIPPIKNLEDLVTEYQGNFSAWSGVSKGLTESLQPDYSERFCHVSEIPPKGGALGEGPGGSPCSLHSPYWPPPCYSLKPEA
# T2: IL-2Rαβγ on KHYG-1 cells (human NK leukemia cell line that expresses IL-2Rα, β, and γ) (human, UniProt P01589 22-272; P14784 27-551; P31785 23-369)
# T2 sequence (looked up) 1: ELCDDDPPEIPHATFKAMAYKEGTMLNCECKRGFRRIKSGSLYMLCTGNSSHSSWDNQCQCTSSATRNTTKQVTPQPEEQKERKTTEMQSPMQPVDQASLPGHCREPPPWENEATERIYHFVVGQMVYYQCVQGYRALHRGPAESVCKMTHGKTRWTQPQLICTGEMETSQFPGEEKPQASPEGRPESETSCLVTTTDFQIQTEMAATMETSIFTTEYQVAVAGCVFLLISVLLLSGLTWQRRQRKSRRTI
# T2 sequence (looked up) 2: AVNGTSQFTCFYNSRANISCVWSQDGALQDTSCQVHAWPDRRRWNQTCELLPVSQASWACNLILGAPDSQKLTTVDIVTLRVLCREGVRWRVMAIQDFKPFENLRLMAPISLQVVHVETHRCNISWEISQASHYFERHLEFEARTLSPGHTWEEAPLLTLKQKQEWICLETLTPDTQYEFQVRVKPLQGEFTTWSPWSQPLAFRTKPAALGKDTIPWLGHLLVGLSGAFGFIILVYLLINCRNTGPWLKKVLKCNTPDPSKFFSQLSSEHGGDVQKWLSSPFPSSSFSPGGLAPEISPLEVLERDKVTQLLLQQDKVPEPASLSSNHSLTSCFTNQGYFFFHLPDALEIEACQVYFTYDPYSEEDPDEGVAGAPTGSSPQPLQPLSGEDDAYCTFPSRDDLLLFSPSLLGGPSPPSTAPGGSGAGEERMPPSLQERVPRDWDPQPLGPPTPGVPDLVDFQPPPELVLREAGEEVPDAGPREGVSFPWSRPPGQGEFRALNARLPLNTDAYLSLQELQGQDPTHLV
# T2 sequence (looked up) 3: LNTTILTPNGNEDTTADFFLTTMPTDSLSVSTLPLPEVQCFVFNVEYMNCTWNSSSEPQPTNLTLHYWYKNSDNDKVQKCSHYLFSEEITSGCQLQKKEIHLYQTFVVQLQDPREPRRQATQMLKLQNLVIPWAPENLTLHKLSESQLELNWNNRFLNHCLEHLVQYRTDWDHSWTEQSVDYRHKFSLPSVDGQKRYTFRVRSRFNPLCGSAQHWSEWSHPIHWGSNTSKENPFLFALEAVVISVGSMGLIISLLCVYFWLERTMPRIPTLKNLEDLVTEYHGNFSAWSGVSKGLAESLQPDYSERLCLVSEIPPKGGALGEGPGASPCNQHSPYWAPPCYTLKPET
# T3: IL-2Rβ and IL-2Rγ on Ba/F3 cells engineered to express murine IL-2Rβ (murine, UniProt P16297 27-539; P34902 23-369)
# T3 sequence (looked up) 1: T1 sequence (looked up) 2
# T3 sequence (looked up) 2: T1 sequence (looked up) 3
# T4: IL-2Rα (recombinant IL-2 receptor α, R&D Systems Cat #: 223-2A/CF), biotinylated (human, UniProt P01589 22-213, limits assumed, biotinylated using sulfo-NHS-LC-LC-Biotin)
# T4 construct: Bought reagent; also used here as the IL-2Rα partner of the in-silico analysis of PDB 2B5I (another construct); also called IL-2RA; CD25
# T4 sequence (looked up): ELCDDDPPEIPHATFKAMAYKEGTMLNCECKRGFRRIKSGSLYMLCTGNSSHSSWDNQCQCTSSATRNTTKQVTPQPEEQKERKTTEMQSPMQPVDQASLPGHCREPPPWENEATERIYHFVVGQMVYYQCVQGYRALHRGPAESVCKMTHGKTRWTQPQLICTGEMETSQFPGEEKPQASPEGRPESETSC
# B1: Fc-IL-2v heterodimer 107.46 (hIL-2v_Δ1-5_F42A_E62A_C125S) (Fc fusion)
# chain 1: ESKYGPPCPPCPAPEAAGGPSVFLFPPKPKDTLMISRTPEVTCVVVDVSQEDPEVQFNWYVDGVEVHNAKTKPREEQFNSTYRVVSVLTVLHQDWLNGKEYKCKVSNKGLPSSIEKTISKAKGQPREPQVYTLPPSQEEMTKNQVSLWCLVKGFYPSDIAVEWESNGQPENNYKTTPPVLDSDGSFFLYSRLTVDKSRWQEGNVFSCSVMHEALHNHYTQKSLSLSLGGGGGSGGGGSGGGGSGGGGSSTKKTQLQLEHLLLDLQMILNGINNYKNPKLTRMLTAKFYMPKKATELKHLQCLEEALKPLEEVLNLAQSKNFHLRPRDLISNINVIVLELKGSETTFMCEYADETATIVEFLNRWITFSQSIISTLT
# chain 2: ESKYGPPCPPCPAPEAAGGPSVFLFPPKPKDTLMISRTPEVTCVVVDVSQEDPEVQFNWYVDGVEVHNAKTKPREEQFNSTYRVVSVLTVLHQDWLNGKEYKCKVSNKGLPSSIEKTISKAKGQPREPQVYTLPPSQEEMTKNQVSLSCAVKGFYPSDIAVEWESNGQPENNYKTTPPVLDSDGSFFLVSRLTVDKSRWQEGNVFSCSVMHEALHNRFTQKSLSLSLGK
# notes: hIgG4 knob-in-hole Fc heterodimer, one IL-2v on the knob chain
# B2: Fc-IL-2v heterodimer 113.46 (hIL-2v_Δ1-5_R38G_E62A_C125S) (Fc fusion)
# chain 1: B1 chain 1 with R281G, A285F
# chain 2: B1 chain 2
# notes: as for B1
# B3: Fc-IL-2v heterodimer 114.46 (hIL-2v_Δ1-5_R38G_F42A_E62A_C125S) (Fc fusion)
# chain 1: B1 chain 1 with R281G
# chain 2: B1 chain 2
# notes: as for B1
# B4: mouse surrogate Fc-IL-2 heterodimer 165.250 (IL2v_C140A), native IL-2Rα binding interface (Fc fusion)
# chain 1: GPTIKPCPPCKCPAPNAAGGPSVFIFPPKIKDVLMISLSPIVTCVVVDVSEDDPDVQISWFVNNVEVHTAQTQTHREDYNSTLRVVSALPIQHQDWMSGKEFKCKVNNKDLGAPIERTISKPKGSVRAPQVYVLPPPEEEMTKKQVTLWCMVTDFMPEDIYVEWTNNGKTELNYKNTEPVLDSDGSYFMYSKLRVEKKNWVERNSYSCSVVHEGLHNHHTTKSFSRTPGGGGGSGGGGSGGGGSGGGGSQQQHLEQLLMDLQELLSRMENYRNLKLPRMLTFKFYLPKQATELKDLQCLEDELGPLRHVLDLTQSKSFQLEDAENFISNIRVTVVKLKGSDNTFECQFDDESATVVDFLRRWIAFAQSIISTSPQ
# chain 2: GPTIKPCPPCKCPAPNAAGGPSVFIFPPKIKDVLMISLSPIVTCVVVDVSEDDPDVQISWFVNNVEVHTAQTQTHREDYNSTLRVVSALPIQHQDWMSGKEFKCKVNNKDLGAPIERTISKPKGSVRAPQVYVLPPPEEEMTKKQVTLSCAVTDFMPEDIYVEWTNNGKTELNYKNTEPVLDSDGSYFMVSKLRVEKKNWVERNSYSCSVVHEGLHNHHTTKSFSRTPGK
# B5: mouse surrogate Fc-IL-2v heterodimer 171.250 (IL2v_R52G_F56A_E76A_C140A) (Fc fusion)
# chain 1: B4 chain 1 with R278G, F282A, E302A
# chain 2: B4 chain 2
# B6: mouse surrogate Fc-IL-2v heterodimer 166.250 (IL2v_F56A_Y59A_L86G_C140A) (Fc fusion)
# chain 1: B4 chain 1 with F282A, Y285A, L312G
# chain 2: B4 chain 2
# B7: mouse surrogate Fc-IL-2v heterodimer 167.250 (IL2v_F56A_C140A) (Fc fusion)
# chain 1: B4 chain 1 with F282A
# chain 2: B4 chain 2
# B8: mouse surrogate Fc-IL-2v heterodimer 168.250 (IL2v_F56A_E76A_C140A) (Fc fusion)
# chain 1: B4 chain 1 with F282A, E302A
# chain 2: B4 chain 2
# Biological target: T1, trimeric murine IL-2 receptor (IL-2Rα, …)
# Assay: cell-based or functional assay
row,"STAT5 activation of CTLL-2 cells, EC50",Binder
1,25.5 nM,B1
2,3.1 nM,B2
3,61.2 nM,B3

# Biological target: T2, IL-2Rαβγ on KHYG-1 cells (human NK …)
# Assay: cell-based or functional assay
row,"Proliferation of KHYG-1 NK cells, EC50",Binder
1,0.235 nM,B1
2,0.344 nM,B2
3,0.336 nM,B3

# Biological target: T1, trimeric murine IL-2 receptor (IL-2Rα, …)
# Assay: cell-based or functional assay
# Remark: another data set of the same source
row,"pSTAT5 EC50, STAT5 activation of CTLL-2 cells",Binder
1,2 pM,B4
2,88.7 nM,B5
3,5.4 nM,B6
4,0.12 nM,B7
5,63.1 nM,B8

# Biological target: T3, IL-2Rβ and IL-2Rγ on Ba/F3 cells …
# Assay: cell-based or functional assay
row,"Proliferation EC50, Ba/F3 cells",Binder
1,4.1 nM,B4
2,13 nM,B5
3,9.5 nM,B6
4,5.2 nM,B7
5,20.6 nM,B8

# Biological target: T4, IL-2Rα (recombinant IL-2 receptor α, …)
# Assay: SPR (Biacore), CM4 chip, biotinylated receptor on neutravidin
row,Kd,Binder
1,> 60000 nM,B1
2,> 60000 nM,B3

# Biological target: T5, IL-2Rβγ heterodimer, custom biotinylated Fc fusion protein (human IL-2Rβ 27-240-Fc-FLAG / human IL-2Rγ … (human, site-specific biotinylation at the AviTag))
# T5 construct: Extracellular regions fused to IgG1 knob-in-hole Fc subunits with tags; also called IL-2 receptor βγ heterodimer; Fc-IL-2Rβγ
# Assay: as above
row,Kd,Binder
1,0.069 nM,B1
2,0.072 nM,B2
3,0.076 nM,B3
